Measurements: article PMC8872791, “MadR mediates acyl CoA-dependent regulation of mycolic acid desaturation in mycobacteria” (Proceedings of the National Academy of Sciences of the …, 2022)

T1: MadR (Mycobacterium tuberculosis H37Rv, UniProt P9WMD9 1-234)
T1 sequence: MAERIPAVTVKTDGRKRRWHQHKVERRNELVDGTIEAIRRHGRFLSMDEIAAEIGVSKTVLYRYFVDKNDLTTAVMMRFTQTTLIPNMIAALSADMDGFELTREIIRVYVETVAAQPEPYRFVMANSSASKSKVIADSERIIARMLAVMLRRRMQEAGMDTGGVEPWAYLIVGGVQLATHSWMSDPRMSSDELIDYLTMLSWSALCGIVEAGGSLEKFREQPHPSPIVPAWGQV

B1: desA2 control (substituted motif) (dsDNA)
DNA 1: TTCGAGAACGATGCAAATACGAAGGTATACTACCTCATGGTAATCAAACC
DNA 2: GGTTTGATTACCATGAGGTAGTATACCTTCGTATTTGCATCGTTCTCGAA
B2: desA1 control (substituted motif) (dsDNA)
DNA 1: CCGTTCGAGACGACTAATGAGGTGCAACAATATACGATCACCATCGGTA
DNA 2: TACCGATGGTGATCGTATATTGTTGCACCTCATTAGTCGTCTCGAACGG

Molecular target: T1, MadR
Test: EMSA
Conditions: protein: recombinant; tags: His-tag implied (pET28a, cobalt IMAC); chain copies: 2; blunt

Row | Binder | binding result
1 | B1 | no binding
2 | B2 | no binding
